Measured values reported in patent US12098378B2, “Anti-fungal polypeptides” (priority 2020, dated 2024).

Legend:
[1] = system: liposomes from total lipid extract (TLE) of Botrytis cinerea hyphae; test: Interaction with DPH-containing liposomes (fluorescence); assay type: binding
Procedure: (§1) In order to investigate the putative interaction partner of 10G11 and its variants, lipids were extracted from Botrytis cinerea hyphae as described in Example 1. For the further fractionation of the total lipid extract thin-layer chromatography was used (TLC; Skipski et al (1965), Biochimica et Biophysica Acta, 106(2): 386-396). The extract was spotted on a silica gel glass plate and run in a chromatography tank filled with 100 mL of the chloroform/methanol mixture (85/15, v/v). Lipid bands separated by TLC were stained with alpha-naphthol enabling visual detection of lipids. Four fractions were identified (FIG. 10): Fraction 1, the fraction of polar lipids; Fraction 2, with a Retention Factor (Rf) similar to the glucosylceramide reference standard (GlcCer from Tamogitake), likely to be ceramides; Fraction 3, with a slightly higher Rf than the reference standard; and Fraction 4, the non-polar phospholipids (PLs). For obtaining sufficient material from the separate Fractions, normal-phase flash chromatography can be used (Gorden, M. H. (2015). Encyclopedia of Analytical Science (Second edition), Elsevier). The TLE was therefore dissolved in CH2Cl2 by addition of a few drops of MeOH and loaded onto a 4 g normal phase flash cartridge with 15 μm particles. The column was run with CH2Cl2/MeOH (85/15, v/v) as the eluent. Finally, Fractions were filtered through a 0.45 μm syringe filter (nylon membrane), and dried. Hereafter, liposomes from the true lipid extract and its individual fractions were prepared via the thin-film hydration method with the addition of 1,6-diphenyl-1,3,5-hexatriene (DPH) (Trucillo et al, 2020. Processes 8(9):1022; Zhang, 2017. Liposomes 1522:1 7-22). […] Any disruption of the lipid membranes would lead to a decrease in fluorescent signal. Hereafter, the interaction of 10G11 with these liposomes was tested.

[2] = system: liposomes from Fraction 4, the non-polar phospholipids (PLs), of Botrytis cinerea lipid extract; test: as above; assay type: binding; conditions: Fraction 4 liposomes (FIG. 11)
Procedure: as §1

[3] = system: liposomes from Fraction 3 of Botrytis cinerea lipid extract; test: as above; assay type: binding; conditions: Fraction 3 liposomes (FIG. 11)
Procedure: as §1

Uncinula necator = test: Control of powdery mildew on grapevine in field; assay type: in vivo; conditions: 250, 500, 750 g ai/ha, 8 applications, until four weeks after application
Procedure: Four replicates of 10 vines (25 m^2 per plot) were treated with 8 or 10 l of spray solution, corresponding with a spray volume of […], according to local practice and growth stage of the vines. The spray mix contained a concentration of active ingredient as described in Table 4. Eight applications were performed, spaced on average 10 days apart. No artificial infection was performed and first spray was at pre-bloom stage, before first powdery mildew symptoms. The efficacy 10G11 was compared to that of a non-treated control and the chemical reference Topas 10 EC (Penconazole). In addition, a chemical rotation of Tiovit Jet (sulphur), Vivando (Metrafenon), Sercadis (Fluxapyroxad), Prosper 500 EC (Spiroxamine) and Karathane Star (Meptyldinocap) was evaluated. A seventh treatment replaced part of the chemicals in this chemical rotation by 10G11 as described in Table 4.
Efficacy assessments were performed on leaves by evaluating the percentage of leaf area affected on 100 leaves randomly selected from the same position on the shoot. In addition, powdery mildew infection on fruits was assessed as the percentage of infected area of 50 randomly selected bunches per plot. Assessments continued until 4 weeks after the last application.

Phakopsora pachyrhizi = test: Control of soybean rust on soybeans in glasshouse; assay type: in vivo
Procedure: Four replicates of pot-grown soybean plants (4 plants/pot) were sprayed with 125 ml aqueous suspension, containing a concentration of active ingredient of as described in Table 1. Two applications were done spaced 14 days apart. Plants were inoculated once with Phakopsora pachyrhizi two days after the first application (application A) of active ingredient. The growth inhibitory characteristics of 10G11Q were compared to those of a non-antifungal reference VHH molecule, a non-treated control and the systemic chemical Quadris Top SBX (azoxystrobin, difeconazole).
Disease severity is recorded as percent severity on a scale of 0-100%. Recording started when first symptoms appear followed by weekly assessment at least till 3 weeks after the second application (application B) of the active ingredient. Percent severity ratings are separated based on the position on the plant: Percent severity low canopy, Percent severity mid canopy and Percent severity upper canopy to track the progress of the disease well and following the natural development of the disease in nature.
Time indications in the graphs on the x-axis concern the time of recording of disease severity or incidence. These are relative and are indicated by the number of days after application when recording occurred. For example, a recording 13 Days After the second application (application B) will be represented as 13DAB. This code is applicable for FIG. 15 to FIG. 28.

B1: 10G11: VHH polypeptide, SEQ ID NO: 2, begins with a D residue (protein)
VHH: DVQLVESGGGLVQAGGSLRLSCAASRSIFSINAMDWYRQAPGKQREWVAGITRGGTTKYADSVKGRFTISRDNAKKKVYLQMNSLKPEDTAVYYCNVLRGEQPWTRDYWGQGTQVTVSS
[1]; stated generally for the liposomes with which 10G11 interacts (FIG. 11)
  membrane disruption of liposome vesicles: breakage of the vesicles
[1]; total lipid extract (TLE) liposomes (FIG. 11)
  interaction with lipids in liposomes (DPH fluorescence): interacts
[2]
  interaction with lipids in liposomes (DPH fluorescence): interacts
[3]
  interaction with lipids in liposomes (DPH fluorescence): interacts
Uncinula necator; very high disease pressure (FIG. 20)
  severity of powdery mildew on grape leaves (percentage of leaf area affected): clear and dose-related performance
Uncinula necator; very high disease pressure (FIG. 21)
  severity of powdery mildew on grape bunches (percentage of infected area): clear and dose-related performance
Phakopsora pachyrhizi; 250, 500, 750 g ai/ha, 2 applications, until 3 weeks after the second application, vs reference VHH and non-treated inoculated control (FIG. 15)
  percent severity of Asian soybean rust, lower canopy: prominent and dose-related growth inhibition pattern
Phakopsora pachyrhizi; 250, 500, 750 g ai/ha, 2 applications, until 3 weeks after the second application, vs reference VHH and non-treated inoculated control (FIG. 16)
  percent severity of Asian soybean rust, mid canopy: prominent and dose-related growth inhibition pattern
Phakopsora pachyrhizi; 250, 500, 750 g ai/ha, 2 applications, until 3 weeks after the second application, vs reference VHH and non-treated inoculated control (FIG. 17)
  percent severity of Asian soybean rust, upper canopy: prominent and dose-related growth inhibition pattern
Phakopsora pachyrhizi; 750 g ai/ha
  activity compared with chemical reference Quadris Top SBX: on par
